Consider 4 molecules from patent US20210292414A1 (H LUNDBECK A S, published 2021).

T1: Sortilin SORTECDBAP_tetra (tetraodon)
T1 construct: Fully tetraodon Sortilin ECD with BAP tag; also called tetraodon; tetraodon Sortilin
T1 chain: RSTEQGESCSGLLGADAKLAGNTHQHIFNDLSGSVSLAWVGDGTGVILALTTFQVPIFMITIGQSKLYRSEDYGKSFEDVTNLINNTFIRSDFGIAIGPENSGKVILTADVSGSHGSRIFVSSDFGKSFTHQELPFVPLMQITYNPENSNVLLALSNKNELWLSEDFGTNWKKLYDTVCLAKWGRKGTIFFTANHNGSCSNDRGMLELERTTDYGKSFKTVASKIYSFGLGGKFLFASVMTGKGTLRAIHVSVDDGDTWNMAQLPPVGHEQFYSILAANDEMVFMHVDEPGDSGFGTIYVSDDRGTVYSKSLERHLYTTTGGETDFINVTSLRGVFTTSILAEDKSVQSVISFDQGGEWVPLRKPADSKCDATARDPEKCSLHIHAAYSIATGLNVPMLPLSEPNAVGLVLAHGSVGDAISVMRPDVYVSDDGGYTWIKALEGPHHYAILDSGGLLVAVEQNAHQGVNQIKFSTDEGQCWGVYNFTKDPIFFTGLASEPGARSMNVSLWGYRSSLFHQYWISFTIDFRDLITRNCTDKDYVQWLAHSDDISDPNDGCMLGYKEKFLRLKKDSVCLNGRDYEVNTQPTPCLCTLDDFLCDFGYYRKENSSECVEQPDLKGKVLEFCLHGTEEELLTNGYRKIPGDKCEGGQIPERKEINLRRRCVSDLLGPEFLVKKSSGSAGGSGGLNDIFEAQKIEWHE

B1: IgG1-6003-910 (antibody, V domains shown)
VH: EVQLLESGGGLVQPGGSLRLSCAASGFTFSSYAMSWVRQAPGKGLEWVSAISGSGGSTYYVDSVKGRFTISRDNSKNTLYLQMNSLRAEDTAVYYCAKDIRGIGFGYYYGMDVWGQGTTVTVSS
VL: EIVLTQSPATLSLSPGERATLSCRASQSVSSYLVWYQQKPGQAPRLLIYDASNRATGIPARFSGSGSGTDFTLTISSLEPEDFAVYYCQQRSNWPPTFGQGTRLEIK
notes: also called Antibody 6003-910
B2: IgG1-6003-972 (antibody, V domains shown)
VH: QVQLVESGGGVVQPGRSLRLSCAASGFTFSDYAMHWVRRAPGKGLEWVVVISYDGSNKYYADSVKGRFTISRDNSKNTLYLQMNSLRAEDTAVYYCARDPSGGWYFDLWGRGTLVTVSS
VL: EIVLTQSPATLSLSPGERATLSCRASQSVSSYLAWYQQKPGQAPRLLIYDASNRATGIPARFSGSGSGTDFTLTISSLEPEDFALYYCQQRSHWPRTFGQGTKVEIK
notes: also called Antibody 6003-972
B3: Antibody 6003-900 (antibody, human IgG1, V domains shown)
VH: EVQLVESGGGLVKPGGSLRLSCAASGFTFSSYSMNWVRQAPGKGLEWVSSISSSSSYIYYADSVKGRFTISRDNAKNSLYLQMNSLRAEDTAVYYCARRGSGSYDAFDIWGQGTMVTVSS
VL: EIVLTQSPDFQSVTPKEKVTITCRASQSIGYSLHWYQQKPDQSPKLLIKYASQSFSGVPSRFSGSGSGTDFTLTINSLEAEDAAAYYCHQSSSLPLTFGGGTKVEIK
notes: also called antibody 900; Sortilin human antibody 900
B4: Antibody 6003-886 (antibody, human IgG1, V domains shown)
VH: QVQLVQSGAEVKKPGASVKVSCKASGYTFTKYGISWVRQAPGQGLEWMGWISAYNGNTNYAQKLQDRVTMTTDTFTSTAYMELRSLRSDDTAVYFCARDGPLTGDFTFYGMDVWGQGTTVTVSS
VL: EIVLTQSPATLSLSPGERATLSCRASQSVSSYLAWYQQKPGQAPRLLIYDASNRATGIPARFSGSGSGTDFTLTISSLEPEDFAVYYCQQRSNWPPFTFGPGTKVDIK

This assay deals with T1, Sortilin SORTECDBAP_tetra. Put plainly: BLI (Octet384RED).
Regarding B1, the binding result is listed as “no binding”.

As for B2, the binding result was “no binding”.

Regarding B3, the binding result was “no binding”.

For B4, the binding result is reported as “no binding”.
